Results as given in patent publication US20170224771A1, “HISTATINS AS THERAPEUTIC AGENTS FOR OCULAR SURFACE DISEASE” (RAPID PATHOGEN SCREENING, INC., priority 2014, published 2017).

How the values were obtained:
[1] = Stability of ocular histatin formulation, determined by mass spectroscopy; type: physicochemical; settings: 100 μg/mL in commercially-available gel tears lubricating eye drop with 0.25% PEG in aqueous buffered borate salt solution
Protocol: In some embodiments, the ocular histatin formulation is stable both at room temperature (25° C.) and at 45° C. for at least 90 days.

[2] = target: T1, MMP-2 (Homo sapiens, UniProt P08253); settings: host protease; according to Gusman; cited from earlier work
T1 sequence (P08253 110-660): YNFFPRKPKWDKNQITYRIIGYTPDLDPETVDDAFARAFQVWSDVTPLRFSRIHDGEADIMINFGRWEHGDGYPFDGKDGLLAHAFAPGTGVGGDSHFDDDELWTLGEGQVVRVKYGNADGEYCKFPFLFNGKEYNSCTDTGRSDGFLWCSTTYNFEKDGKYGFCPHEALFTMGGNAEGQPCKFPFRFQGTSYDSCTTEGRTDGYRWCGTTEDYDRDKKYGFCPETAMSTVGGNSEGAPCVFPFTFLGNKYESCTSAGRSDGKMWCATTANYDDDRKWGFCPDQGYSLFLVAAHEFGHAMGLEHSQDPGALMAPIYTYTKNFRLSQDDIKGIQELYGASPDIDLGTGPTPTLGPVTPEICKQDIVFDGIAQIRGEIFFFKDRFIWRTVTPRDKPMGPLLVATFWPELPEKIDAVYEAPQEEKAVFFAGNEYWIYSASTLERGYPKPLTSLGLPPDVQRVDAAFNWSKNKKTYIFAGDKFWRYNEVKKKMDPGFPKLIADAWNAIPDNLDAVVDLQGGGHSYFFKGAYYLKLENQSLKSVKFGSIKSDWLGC

[3] = target: MMP-9 (Homo sapiens, UniProt P14780); settings: host protease; according to Gusman; cited from earlier work
MMP-9, sequence (P14780 94-707): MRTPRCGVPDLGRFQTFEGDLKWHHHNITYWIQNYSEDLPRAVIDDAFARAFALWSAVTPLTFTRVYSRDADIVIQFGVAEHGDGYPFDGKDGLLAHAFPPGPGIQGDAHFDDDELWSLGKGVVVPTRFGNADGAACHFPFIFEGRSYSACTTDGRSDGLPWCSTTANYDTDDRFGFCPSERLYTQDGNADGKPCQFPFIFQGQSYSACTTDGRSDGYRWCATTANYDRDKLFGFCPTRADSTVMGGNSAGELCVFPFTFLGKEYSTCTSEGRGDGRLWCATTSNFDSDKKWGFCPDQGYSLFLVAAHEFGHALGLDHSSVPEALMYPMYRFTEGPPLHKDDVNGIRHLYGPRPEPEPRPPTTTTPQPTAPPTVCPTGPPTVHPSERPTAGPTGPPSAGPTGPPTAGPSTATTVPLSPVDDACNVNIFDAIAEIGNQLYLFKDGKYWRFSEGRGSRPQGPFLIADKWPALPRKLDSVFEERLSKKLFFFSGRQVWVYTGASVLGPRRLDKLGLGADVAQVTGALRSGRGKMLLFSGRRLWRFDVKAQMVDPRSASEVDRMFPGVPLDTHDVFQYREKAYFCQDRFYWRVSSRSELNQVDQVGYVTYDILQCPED

[4] = test system: cultured ocular epithelial cells; settings: cultured ocular epithelial cells in vitro; cited from earlier work

## cyclized histatin 1: sortase cyclized histatin (including all of Histatin 1) (GGDSHEKRHHGYRRKFHEKHHSHREFPFYGDYGSNYLYDNLPET; sortase cyclization)
[1]; 25° C.
  time found to be stable: at least 505 days
[1]; 45° C.
  time found to be stable: at least 90 days

## histatin 5: naturally occurring oral salivary peptide; SEQ ID NO: 30 peptide
[2]
  inhibition of MMP-2 activity: greatly inhibited
[3]
  inhibition of MMP-9 activity: greatly inhibited

## Benzalkonium chloride
[4]
  cytotoxicity: significant cytotoxicity
